Target: the molecule itself
Experiment: cryo-EM structure

B1: N-terminal IST1 R16E/K27E mutant (IST1NTD^R16E/K27E) (domain or fragment, human, UniProt P53990 1-189, looked up)
chain: MLGSGFKAERLRVNLELVINRLKLLEEKKTELAQKARKEIADYLAAGKDERARIRVEHIIREDYLVEAMEILELYCDLLLARFGLIQSMKELDSGLAESVSTLIWAAPRLQSEVAELKIVADQLCAKYSKEYGKLCRTNQIGTVNDRLMHKLSVEAPPKILVERYLIEIAKNYNVPYEPDSVVMAEAPP
**Q.** Does B1 bind?
**A.** Result: binds

From publication PMC7343221 (Nature structural & molecular biology, 2020)
